Test results as given in patent US20160024159A1.

Tests used:
Assay in all cases: cell-based or functional assay
[1] = molecular target: human voltage-gated sodium channel Nav1.7 (human) (UniProt Q15858)
[2] = molecular target: TTX-sensitive Nav channels in mouse DRG neurons
[3] = molecular target: human Nav1.7 voltage-gated sodium channel (human) (UniProt Q15858)
[4] = molecular target: human voltage-gated sodium channel Nav1.5 (human) (UniProt Q14524)
[5] = molecular target: human voltage-gated sodium channel Nav1.3 (human) (UniProt Q9NY46)
[6] = molecular target: human voltage-gated sodium channel Nav1.4 (human) (UniProt P35499)
Chain of human voltage-gated sodium channel Nav1.4 (human) (P35499 whole entry): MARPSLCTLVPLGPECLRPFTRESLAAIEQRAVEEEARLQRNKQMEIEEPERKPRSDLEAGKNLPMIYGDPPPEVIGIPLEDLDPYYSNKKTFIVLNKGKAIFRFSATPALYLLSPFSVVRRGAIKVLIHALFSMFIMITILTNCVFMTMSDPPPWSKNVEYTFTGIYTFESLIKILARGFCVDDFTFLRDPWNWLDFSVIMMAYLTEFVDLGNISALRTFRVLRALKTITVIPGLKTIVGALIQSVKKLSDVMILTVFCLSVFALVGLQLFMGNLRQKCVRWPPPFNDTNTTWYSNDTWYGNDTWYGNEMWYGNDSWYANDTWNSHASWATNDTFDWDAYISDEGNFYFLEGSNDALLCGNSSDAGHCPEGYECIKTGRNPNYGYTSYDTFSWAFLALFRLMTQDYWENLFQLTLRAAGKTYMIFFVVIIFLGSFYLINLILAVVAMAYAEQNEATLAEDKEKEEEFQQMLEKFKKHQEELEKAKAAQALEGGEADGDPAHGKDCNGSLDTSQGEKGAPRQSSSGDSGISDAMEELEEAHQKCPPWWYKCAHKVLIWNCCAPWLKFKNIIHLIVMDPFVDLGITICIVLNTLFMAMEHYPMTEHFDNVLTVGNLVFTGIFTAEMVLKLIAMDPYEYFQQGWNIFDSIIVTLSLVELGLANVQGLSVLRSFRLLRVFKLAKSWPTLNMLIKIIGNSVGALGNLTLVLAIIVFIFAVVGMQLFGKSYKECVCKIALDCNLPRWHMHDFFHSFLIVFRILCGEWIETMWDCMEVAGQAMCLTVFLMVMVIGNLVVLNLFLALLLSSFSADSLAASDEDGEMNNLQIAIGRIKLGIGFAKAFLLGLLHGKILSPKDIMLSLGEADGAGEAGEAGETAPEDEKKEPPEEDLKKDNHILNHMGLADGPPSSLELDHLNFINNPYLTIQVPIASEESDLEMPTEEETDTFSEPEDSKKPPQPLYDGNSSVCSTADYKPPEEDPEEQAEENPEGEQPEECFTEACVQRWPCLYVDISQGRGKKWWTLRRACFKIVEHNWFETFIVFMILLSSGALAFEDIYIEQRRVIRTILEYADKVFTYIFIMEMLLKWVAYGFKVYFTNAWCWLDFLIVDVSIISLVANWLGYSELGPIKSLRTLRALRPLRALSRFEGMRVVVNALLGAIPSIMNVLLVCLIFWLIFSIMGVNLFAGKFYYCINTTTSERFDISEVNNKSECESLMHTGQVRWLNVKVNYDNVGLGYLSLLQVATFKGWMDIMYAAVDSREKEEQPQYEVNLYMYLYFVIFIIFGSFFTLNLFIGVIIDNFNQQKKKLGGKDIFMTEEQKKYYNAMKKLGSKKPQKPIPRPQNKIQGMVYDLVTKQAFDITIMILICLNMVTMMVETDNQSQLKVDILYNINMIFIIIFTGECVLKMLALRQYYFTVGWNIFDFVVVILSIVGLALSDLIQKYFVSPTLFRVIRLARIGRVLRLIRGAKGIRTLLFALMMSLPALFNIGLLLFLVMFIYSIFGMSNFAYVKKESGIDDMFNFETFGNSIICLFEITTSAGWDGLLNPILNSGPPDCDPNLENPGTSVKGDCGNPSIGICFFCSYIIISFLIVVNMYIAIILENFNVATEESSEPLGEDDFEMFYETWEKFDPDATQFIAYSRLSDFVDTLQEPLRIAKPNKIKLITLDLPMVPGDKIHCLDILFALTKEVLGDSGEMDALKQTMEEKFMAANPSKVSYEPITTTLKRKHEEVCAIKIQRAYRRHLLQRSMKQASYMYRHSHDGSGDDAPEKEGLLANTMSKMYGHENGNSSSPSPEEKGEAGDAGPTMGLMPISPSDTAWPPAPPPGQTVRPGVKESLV

Chain of human voltage-gated sodium channel Nav1.7 (human) (Q15858 whole entry): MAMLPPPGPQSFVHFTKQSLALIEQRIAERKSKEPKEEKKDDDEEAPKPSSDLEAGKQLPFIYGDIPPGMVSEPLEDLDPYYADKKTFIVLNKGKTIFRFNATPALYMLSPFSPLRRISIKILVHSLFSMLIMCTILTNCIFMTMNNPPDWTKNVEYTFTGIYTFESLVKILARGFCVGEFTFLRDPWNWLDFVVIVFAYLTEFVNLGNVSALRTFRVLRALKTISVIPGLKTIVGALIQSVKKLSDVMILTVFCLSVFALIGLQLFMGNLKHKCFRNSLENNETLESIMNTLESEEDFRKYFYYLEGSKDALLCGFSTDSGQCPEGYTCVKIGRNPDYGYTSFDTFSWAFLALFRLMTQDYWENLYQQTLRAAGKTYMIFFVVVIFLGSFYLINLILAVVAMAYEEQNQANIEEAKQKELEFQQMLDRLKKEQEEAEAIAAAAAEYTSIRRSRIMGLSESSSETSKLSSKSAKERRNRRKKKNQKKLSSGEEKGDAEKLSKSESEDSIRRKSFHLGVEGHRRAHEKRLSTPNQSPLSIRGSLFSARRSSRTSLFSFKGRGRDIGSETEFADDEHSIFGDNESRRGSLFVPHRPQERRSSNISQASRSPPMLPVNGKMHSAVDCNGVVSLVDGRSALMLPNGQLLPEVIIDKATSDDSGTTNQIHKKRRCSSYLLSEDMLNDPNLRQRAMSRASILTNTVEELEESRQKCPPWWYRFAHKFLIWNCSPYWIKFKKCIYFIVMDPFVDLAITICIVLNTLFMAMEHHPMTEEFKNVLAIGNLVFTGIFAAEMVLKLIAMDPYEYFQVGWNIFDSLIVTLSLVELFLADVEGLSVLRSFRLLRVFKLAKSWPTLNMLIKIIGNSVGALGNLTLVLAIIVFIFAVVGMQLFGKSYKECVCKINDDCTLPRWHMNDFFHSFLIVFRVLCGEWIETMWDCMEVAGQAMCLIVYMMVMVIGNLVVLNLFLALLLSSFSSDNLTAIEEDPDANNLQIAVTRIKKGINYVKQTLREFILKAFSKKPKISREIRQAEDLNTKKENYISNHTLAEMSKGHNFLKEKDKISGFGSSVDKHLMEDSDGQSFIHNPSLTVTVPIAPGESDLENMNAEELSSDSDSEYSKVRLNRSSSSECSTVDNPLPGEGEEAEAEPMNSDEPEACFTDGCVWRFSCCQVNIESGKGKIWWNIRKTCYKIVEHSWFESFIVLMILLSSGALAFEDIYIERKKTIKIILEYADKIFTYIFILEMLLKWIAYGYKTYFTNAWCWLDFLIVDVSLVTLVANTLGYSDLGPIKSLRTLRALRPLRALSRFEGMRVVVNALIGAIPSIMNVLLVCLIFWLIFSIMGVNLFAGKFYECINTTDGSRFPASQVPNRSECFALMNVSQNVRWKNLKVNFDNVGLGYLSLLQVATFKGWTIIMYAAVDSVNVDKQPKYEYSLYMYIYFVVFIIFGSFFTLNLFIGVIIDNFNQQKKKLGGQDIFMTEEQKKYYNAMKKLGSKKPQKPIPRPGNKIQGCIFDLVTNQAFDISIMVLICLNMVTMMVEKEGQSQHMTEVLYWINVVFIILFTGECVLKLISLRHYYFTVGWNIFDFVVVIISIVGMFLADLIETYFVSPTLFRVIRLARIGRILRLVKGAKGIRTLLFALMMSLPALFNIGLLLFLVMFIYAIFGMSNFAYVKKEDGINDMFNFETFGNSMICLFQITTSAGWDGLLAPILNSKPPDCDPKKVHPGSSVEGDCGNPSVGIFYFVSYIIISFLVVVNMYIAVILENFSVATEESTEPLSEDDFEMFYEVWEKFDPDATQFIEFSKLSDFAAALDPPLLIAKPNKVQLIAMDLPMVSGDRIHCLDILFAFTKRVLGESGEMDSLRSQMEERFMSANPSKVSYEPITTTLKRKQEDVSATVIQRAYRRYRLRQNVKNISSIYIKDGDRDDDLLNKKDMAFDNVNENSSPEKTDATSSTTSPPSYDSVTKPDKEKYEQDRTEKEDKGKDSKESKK
Chain of human Nav1.7 voltage-gated sodium channel (human) (Q15858 whole entry): as above

## CyA-[Nle6; Val8; Lys17; Glu28]JzTx-V(1-29) (peptide)
[1]
  PX hNav1.7 Tonic IC50: 26.6 nM

## Pra-[Nle6;5-BrW24;Glu28]JzTx-V(1-29) (peptide)
[2]
  WCPC Mean IC50, partially inactivated: 3.8 nM
[3]
  WCPC Mean IC50, partially inactivated: 0.13 nM

## Pra-[Nle6;Glu12,28]JzTx-V(1-29) (peptide)
[2]
  WCPC Mean IC50, partially inactivated: 144 nM

## Pra-[Nle6;Glu14,28]JzTx-V(1-29) (peptide)
[2]
  WCPC Mean IC50, partially inactivated: 99.8 nM

## [Cit7;Glu20;Tyr28]JzTx-V(1-29) (peptide)
[1]
  IC50, IonWorks Quattro electrophysiology: 5.8 µM
[4]
  IC50, IonWorks Quattro electrophysiology: > 7 µM
[5]
  IC50, IonWorks Quattro electrophysiology: > 7 µM
[6]
  IC50, IonWorks Quattro electrophysiology: > 7 µM

## [Nle6;Pra11;Glu20;Trp29]JzTx-V(1-29) (peptide)
[1]
  IC50, IonWorks Quattro electrophysiology: 0.026 µM

## [Nva7;Glu20;Tyr28]JzTx-V(1-29) (peptide)
[1]
  IC50, IonWorks Quattro electrophysiology: 4.5 µM
[4]
  IC50, IonWorks Quattro electrophysiology: > 7 µM
[5]
  IC50, IonWorks Quattro electrophysiology: > 7 µM
[6]
  IC50, IonWorks Quattro electrophysiology: > 7 µM
